Laboratory results from patent US20240327500A1 (NATIONAL UNIVERSITY OF SINGAPORE, published 2024).
No end group written: not given here.

B1: mAb006-11-IgG4 (antibody, V domains shown)
VH: QLQLQESGPGLVKPSETLSLTCTVSGGSMNINDYYWDWVRLSPGKGLEWIGAIYSSGTTYYNPSLKSRVTISVDMSKDQFSLRLSSVTAADTAVYYCVRDGPHRLYYGSGTYYNPRGGYYSYALDVWGQGTTVIV
VL: QLVLTQSPSASASLGASVKLTCTLSSGHGTYAIAWHQLRSEKGPRYLMKVNSDGSHIKGDGIPDRFSGSSSGAERYLIISSLQSEDEADYYCQTWGTGIVIFGGGTKLTVL
B2: mAb006-11-IgG1 (antibody, V domains shown)
VH: QLQLQESGPGLVKPSETLSLTCTVSGGSMNINDYYWDWVRLSPGKGLEWIGAIYSSGTTYYNPSLKSRVTISVDMSKDQFSLRLSSVTAADTAVYYCVRDGPHRLYYGSGTYYNPRGGYYSYALDVWGQGTTVIV
VL: QLVLTQSPSASASLGASVKLTCTLSSGHGTYAIAWHQLRSEKGPRYLMKVNSDGSHIKGDGIPDRFSGSSSGAERYLIISSLQSEDEADYYCQTWGTGIVIFGGGTKLTVL
notes: also called mAb11; mAb006-11G1
B3: mAb006-11-IgG2 (antibody, V domains shown)
VH: QLQLQESGPGLVKPSETLSLTCTVSGGSMNINDYYWDWVRLSPGKGLEWIGAIYSSGTTYYNPSLKSRVTISVDMSKDQFSLRLSSVTAADTAVYYCVRDGPHRLYYGSGTYYNPRGGYYSYALDVWGQGTTVIV
VL: QLVLTQSPSASASLGASVKLTCTLSSGHGTYAIAWHQLRSEKGPRYLMKVNSDGSHIKGDGIPDRFSGSSSGAERYLIISSLQSEDEADYYCQTWGTGIVIFGGGTKLTVL
B4: mAb006-11-IgG3 (antibody, V domains shown)
VH: QLQLQESGPGLVKPSETLSLTCTVSGGSMNINDYYWDWVRLSPGKGLEWIGAIYSSGTTYYNPSLKSRVTISVDMSKDQFSLRLSSVTAADTAVYYCVRDGPHRLYYGSGTYYNPRGGYYSYALDVWGQGTTVIV
VL: QLVLTQSPSASASLGASVKLTCTLSSGHGTYAIAWHQLRSEKGPRYLMKVNSDGSHIKGDGIPDRFSGSSSGAERYLIISSLQSEDEADYYCQTWGTGIVIFGGGTKLTVL

How the values were obtained:
[1] = target: HBV virions (Genotype D) (Hepatitis B virus genotype D); assay: cell-based or functional assay
[2] = target: T1, HBsAg genotype C (adr) (Hepatitis B virus genotype C (adr), UniProt P30019 1-226); assay: ELISA on HBsAg of four genotypes
T1 construct: the form coated in the ELISA is not described

[3] = target: T2, HBsAg genotype A (adw2) (Hepatitis B virus genotype A (adw2), UniProt P03141 175-400); assay: ELISA on HBsAg of four genotypes
T2 construct: the form coated in the ELISA is not described

[4] = target: T3, HBsAg genotype B (adw) (Hepatitis B virus genotype B (adw), UniProt Q9PWW3 175-400); assay: ELISA on HBsAg of four genotypes
T3 construct: the form coated in the ELISA is not described

[5] = target: T4, HBsAg loop 1 linear peptide (Hepatitis B virus, not fully specified; cysteine pairing not given here); assay: direct ELISA on coated linear peptide (50 ng/well)
T4 construct: The peptide is printed with alternative residues at two positions
T4 peptide: TCTTPAQGNSMFPSC

[6] = target: T5, HBsAg loop 2 linear peptide (Hepatitis B virus, not fully specified; cysteine pairing not given here); assay: direct ELISA on coated linear peptide (50 ng/well)
T5 construct: The peptide is printed with alternative residues at one position
T5 peptide: CTKPTDGNCT

[7] = target: T6, recombinant small-HBsAg (Hepatitis B virus); assay: QCM (Attana Cell A200), rHBsAg amine-coupled on chip, 25 C
T6 construct: also called recombinant HBsAg; rHBsAg

Binder | EC50, in-vitro neutralization (HBeAg data) [1] [nM] | binding result [2] | binding result [3] | binding result [4] | binding result [5] | binding result [6] | Kd [7] [nM]
B1 | 0.242 | – | – | – | – | – | –
B2 | 12.6 | binds | binds | binds | no binding | no binding | 22.7
B3 | 1.32 | – | – | – | – | – | –
B4 | 1.05 | – | – | – | – | – | –
